Ends that are not written are not given here. * marks the point of attachment. Biotin = O=C1N[C@H]2[C@H](CS[C@H]2CCCCC(=O)*)N1
Tests used:
Experiment in all cases: A/G assays
[1] = target: T1, NSP PDZ-GST fusion protein (Homo sapiens (Human), UniProt Q92743 370-466)
T1 construct: The label NSP is not explained in the excerpts

[2] = target: T2, GST-prIL16 fusion protein (PDZ domains 1-2) (Homo sapiens (Human), UniProt Q14005 1111-1324)
T2 construct: also called putative interleukin 16 precursor; not shown: glutathione S-transferase encoded by vector pGEX-3X (Pharmacia)
T2 sequence: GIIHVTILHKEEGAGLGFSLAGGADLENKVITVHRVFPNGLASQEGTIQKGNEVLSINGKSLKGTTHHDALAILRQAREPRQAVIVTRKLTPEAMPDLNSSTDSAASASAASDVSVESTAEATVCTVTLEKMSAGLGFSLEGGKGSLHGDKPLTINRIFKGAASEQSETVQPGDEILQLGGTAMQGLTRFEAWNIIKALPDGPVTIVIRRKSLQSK

[3] = target: T3, GST-CASK PDZ domain fusion protein (Homo sapiens, UniProt O14936 486-575)
T3 construct: also called Homo sapiens CASK protein
T3 sequence: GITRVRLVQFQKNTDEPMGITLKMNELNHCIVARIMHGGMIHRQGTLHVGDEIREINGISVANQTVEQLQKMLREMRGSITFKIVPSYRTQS

[4] = target: T4, K559 PDZ-GST fusion protein (Homo sapiens (Human), UniProt Q9Y6V0 4489-4593)
T4 construct: Order of GST and PDZ part and limits not seen in the excerpts
T4 sequence: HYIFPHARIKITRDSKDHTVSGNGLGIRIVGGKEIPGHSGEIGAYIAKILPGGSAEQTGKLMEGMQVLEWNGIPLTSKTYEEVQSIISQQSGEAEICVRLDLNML

[5] = target: T5, GST-mouse syntenin fusion protein (Mus musculus, UniProt O08992 108-286)
T5 construct: also called Mus musculus Syntenin; not shown: glutathione S-transferase encoded by vector pGEX-3X (Pharmacia)
T5 chain: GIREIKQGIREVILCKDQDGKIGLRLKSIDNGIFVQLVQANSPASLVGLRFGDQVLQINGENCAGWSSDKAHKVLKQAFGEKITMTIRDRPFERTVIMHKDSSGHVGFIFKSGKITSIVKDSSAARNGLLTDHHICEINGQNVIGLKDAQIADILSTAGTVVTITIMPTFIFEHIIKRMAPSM

[6] = target: T6, ConEn PDZ-GST fusion protein (Homo sapiens (Human), UniProt Q969H4 193-287)
T6 construct: The label ConEn is not explained in the excerpts
T6 sequence: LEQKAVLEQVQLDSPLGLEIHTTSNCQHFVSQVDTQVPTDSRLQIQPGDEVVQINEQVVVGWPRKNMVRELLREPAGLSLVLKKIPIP

[7] = target: T7, PICK1 PDZ-GST fusion protein (Bos taurus (Bovine), UniProt Q2T9M1 17-105)
T7 construct: Order of GST and PDZ part and limits not seen in the excerpts
T7 sequence (Q2T9M1 other isoform, or with tags, fused parts or gaps limits assumed): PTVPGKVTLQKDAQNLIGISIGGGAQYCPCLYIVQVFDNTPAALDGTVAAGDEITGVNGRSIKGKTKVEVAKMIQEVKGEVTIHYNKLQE

[8] = target: T8, MINT3 PDZ-GST fusion protein
T8 construct: Order of GST and PDZ part and limits not seen in the excerpts
T8 chain: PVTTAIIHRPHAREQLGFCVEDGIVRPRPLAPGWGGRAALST

[9] = target: T9, K858 PDZ-GST fusion protein (Homo sapiens (Human), UniProt Q8WWI1 1038-1131)
T9 construct: Order of GST and PDZ part and limits not seen in the excerpts
T9 sequence: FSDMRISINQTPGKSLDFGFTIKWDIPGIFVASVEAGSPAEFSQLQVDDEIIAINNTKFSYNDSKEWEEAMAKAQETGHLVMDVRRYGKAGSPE

[10] = target: T10, GST-LIM protein PDZ domain fusion protein (Human, UniProt Q96HC4 2-85)
T10 construct: also called Human LIM protein; not shown: glutathione S-transferase encoded by vector pGEX-3X (Pharmacia)
T10 sequence: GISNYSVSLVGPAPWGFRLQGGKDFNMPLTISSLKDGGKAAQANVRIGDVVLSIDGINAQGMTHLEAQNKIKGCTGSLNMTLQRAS

[11] = target: T11, GST-TAX-IP40 PDZ domain fusion protein (human, UniProt Q6B4M5 150-252 (rat entry))
T11 construct: also called TAX40; not shown: glutathione S-transferase encoded by vector pGEX-3X (Pharmacia)
T11 sequence: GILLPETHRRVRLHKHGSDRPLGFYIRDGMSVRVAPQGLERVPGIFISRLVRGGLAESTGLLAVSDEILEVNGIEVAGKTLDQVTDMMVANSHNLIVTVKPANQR

[12] = target: T12, NOS1 PDZ-GST fusion protein (Homo sapiens (Human), UniProt P29475 11-100)
T12 construct: Order of GST and PDZ part and limits not seen in the excerpts
T12 sequence (P29475 11-100 limits assumed): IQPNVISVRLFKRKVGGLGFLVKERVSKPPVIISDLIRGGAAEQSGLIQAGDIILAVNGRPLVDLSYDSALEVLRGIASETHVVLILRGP

[13] = target: T13, GST-cytohesin binding protein PDZ domain fusion protein (Homo sapiens (Human), UniProt O60759 74-165)
T13 construct: also called CBP; not shown: glutathione S-transferase encoded by vector pGEX-3X (Pharmacia)
T13 sequence: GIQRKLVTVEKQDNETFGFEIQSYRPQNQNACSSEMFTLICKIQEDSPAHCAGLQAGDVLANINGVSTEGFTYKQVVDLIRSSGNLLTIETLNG

[14] = target: T14, GST-PDZK1 fusion protein (PDZ domains 2-4) (Homo sapiens, UniProt Q5T2W1 134-457)
T14 construct: not shown: glutathione S-transferase encoded by vector pGEX-3X (Pharmacia)
T14 sequence: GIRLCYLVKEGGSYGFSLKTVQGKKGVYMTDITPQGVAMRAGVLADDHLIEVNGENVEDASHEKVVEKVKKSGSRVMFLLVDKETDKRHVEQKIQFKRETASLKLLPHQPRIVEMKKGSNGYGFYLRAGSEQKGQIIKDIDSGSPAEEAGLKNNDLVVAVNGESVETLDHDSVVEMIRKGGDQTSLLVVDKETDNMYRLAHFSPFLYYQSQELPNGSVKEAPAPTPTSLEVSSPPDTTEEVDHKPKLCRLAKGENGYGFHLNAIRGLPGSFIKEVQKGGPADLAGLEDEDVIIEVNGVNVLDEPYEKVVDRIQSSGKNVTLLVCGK

Measured: binding result

T1 sequence (Q92743 other isoform, or with tags, fused parts or gaps limits assumed): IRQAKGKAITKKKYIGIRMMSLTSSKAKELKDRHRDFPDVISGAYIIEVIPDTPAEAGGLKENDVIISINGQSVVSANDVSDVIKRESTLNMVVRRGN

B1: CD62E C-terminal peptide AA48L (peptide)
peptide: Biotin-SSSQSLESDGSYQKPSYIL
notes: Only the last four residues are seen in the excerpts
no binding: all assays above

B2: CC CKR-3 C-terminal peptide AA43L (peptide)
peptide: Biotin-LERTSSVSPSTAEPELSIVF
notes: as for B1
no binding: all assays above

B3: FasL C-terminal peptide AA23L-M, biotinylated (peptide)
peptide: Biotin-SSKSKSSEESQTFFGLYKL
modifications: not fully specified
notes: also called FasLigand; Fas ligand
no binding: all assays above

B4: CD114 (G-CSFR) C-terminal peptide AA27L (peptide)
peptide: Biotin-LNFPLLQGIRVHGMEALGSF
notes: as for B1
no binding: all assays above

— patent publication US20050037969A1 (ARBOR VITA, published 2005)
